In patent US20140255383A1 (SYNAGEVA BIOPHARMA, published 2014):

Biological target: Mannose 6-phosphate receptor (M6P receptor) on human MPS IIIB fibroblasts (human)
Assay: cell-based or functional assay

cellular uptake: NaGlu activity in MPS IIIB fibroblasts treated with 0.3 µg/mL rhNaGlu for 24 hours, against wild-type fibroblasts: ~50 % of wild-type activity
cellular uptake: NaGlu activity in MPS IIIB fibroblasts treated with 1 µg/mL rhNaGlu for 24 hours, against wild-type fibroblasts: ~4 fold of wild-type activity
cellular uptake: NaGlu activity in MPS IIIB fibroblasts treated with 30 µg/mL rhNaGlu for 24 hours, against wild-type fibroblasts: ≥ 40 fold of wild-type activity
B1: recombinant human N-acetyl-alpha-D-glucosaminidase (rhNaGlu) produced from a transgenic avian (Gallus) (enzyme)
chain: DEAREAAAVRALVARLLGPGPAADFSVSVERALAAKPGLDTYSLGGGGAARVRVRGSTGVAAAAGLHRYLRDFCGCHVAWSGSQLRLPRPLPAVPGELTEATPNRYRYYQNVCTQSYSFVWWDWARWEREIDWMALNGINLALAWSGQEAIWQRVYLALGLTQAEINEFFTGPAFLAWGRMGNLHTWDGPLPPSWHIKQLYLQHRVLDQMRSFGMTPVLPAFAGHVPEAVTRVFPQVNVTKMGSWGHFNCSYSCSFLLAPEDPIFPIIGSLFLRELIKEFGTDHIYGADTFNEMQPPSSEPSYLAAATTAVYEAMTAVDTEAVWLLQGWLFQHQPQFWGPAQIRAVLGAVPRGRLLVLDLFAESQPVYTRTASFQGQPFIWCMLHNFGGNHGLFGALEAVNGGPEAARLFPNSTMVGTGMAPEGISQNEVVYSLMAELGWRKDPVPDLAAWVTSFAARRYGVSHPDAGAAWRLLLRSVYNCSGEACRGHNRSPLVRRPSLQMNTSIWYNRSDVFEAWRLLLTSAPSLATSPAFRYDLLDLTRQAVQELVSLYYEEARSAYLSKELASLLRAGGVLAYELLPALDEVLASDSRFLLGSWLEQARAAAVSEAEADFYEQNSRYQLTLWGPEGNILDYANKQLAGLVANYYTPRWRLFLEALVDSVAQGIPFQQHQFDKNVFQLEQAFVLSKQRYPSQPRGDTVDLAKKIFLKYYPRWVAGSW
modifications: glycosylated; glycans carry mannose-6-phosphate (3.2 moles of M6P per mole of protein), sites not stated
